Data reported in patent US20150315606.

T1: synthetic fluorogenic EPF1 peptide
T1 chain: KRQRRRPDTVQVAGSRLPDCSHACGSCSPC

T2: synthetic EPF2 peptide (synEPF2), 30 AA partial EPF2 peptide spanning the predicted cleavage site, Dabcyl-SKNGGVEMEMYPTGSSLPDCSYACGACSPC-Glu(EDANS)
T2 chain: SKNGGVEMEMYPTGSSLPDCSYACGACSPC

B1: SDD1 protease, STREPII tagged, synthesized in the SP6-TNT wheat germ system (protein)
chain: MEPKPFFLCIIFLLFCSSSSEILQKQTYIVQLHPNSETAKTFASKFDWHLSFLQEAVLGVEEEEEEPSSRLLYSYGSAIEGFAAQLTESEAEILRYSPEVVAVRPDHVLQVQTTYSYKFLGLDGFGNSGVWSKSRFGQGTIIGVLDTGVWPESPSFDDTGMPSIPRKWKGICQEGESFSSSSCNRKLIGARFFIRGHRVANSPEESPNMPREYISARDSTGHGTHTASTVGGSSVSMANVLGNGAGVARGMAPGAHIAVYKVCWFNGCYSSDILAAIDVAIQDKVDVLSLSLGGFPIPLYDDTIAIGTFRAMERGISVICAAGNNGPIESSVANTAPWVSTIGAGTLDRRFPAVVRLANGKLLYGESLYPGKGIKNAGREVEVIYVTGGDKGSEFCLRGSLPREEIRGKMVICDRGVNGRSEKGEAVKEAGGVAMILANTEINQEEDSIDVHLLPATLIGYTESVLLKAYVNATVKPKARIIFGGTVIGRSRAPEVAQFSARGPSLANPSILKPDMIAPGVNIIAAWPQNLGPTGLPYDSRRVNFTVMSGTSMSCPHVSGITALIRSAYPNWSPAAIKSALMTTADLYDRQGKAIKDGNKPAGVFAIGAGHVNPQKAINPGLVYNIQPVDYITYLCTLGFTRSDILAITHKNVSCNGILRKNPGFSLNYPSIAVIFKRGKTTEMITRRVTNVGSPNSIYSVNVKAPEGIKVIVNPKRLVFKHVDQTLSYRVWFVLKKKNRGGKVASFAQGQLTWVNSHNLMQRVRSPISVTLKTN
B2: CO2-regulated secreted subtilisin-like serine protease (CRSP), STREP II-tagged, synthesized in vitro in the wheat germ system (protein)
chain: MKGITFFTPFLSFLYLLCILFMTETEAGSRNGDGVYIVYMGSASSAANANRAQILINTMFKRRANDLLHTYKHGFSGFAARLTAEEAKVIAKKPGVVSVFPDPHFQLHTTHSWDFLKYQTSVKVDSGPPSSASDGSYDSIVGILDTGIWPESESFNDKDMGPIPSRWKGTCMEAKDFKSSNCNRKIIGARYYKNPDDDSEYYTTRDVIGHGSHVSSTIAGSAVENASYYGVASGTAKGGSQNARIAMYKVCNPGGCTGSSILAAFDDAIADGVDVLSLSLGAPAYARIDLNTDPIAIGAFHAVEQGILVICSAGNDGPDGGTVTNTAPWIMTVAANTIDRDFESDVVLGGNKVIKGEGIHFSNVSKSPVYPLIHGKSAKSADASEGSARACDSDSLDQEKVKGKIVLCENVGGSYYASSARDEVKSKGGTGCVFVDDRTRAVASAYGSFPTTVIDSKEAAEIFSYLNSTKDPVATILPTATVEKFTPAPAVAYFSSRGPSSLTRSILKPDITAPGVSILAAWTGNDSSISLEGKPASQYNVISGTSMAAPHVSAVASLIKSQHPTWGPSAIRSAIMTTATQTNNDKGLITTETGATATPYDSGAGELSSTASMQPGLVYETTETDYLNFLCYYGYNVTTIKAMSKAFPENFTCPADSNLDLISTINYPSIGISGFKGNGSKTVTRTVTNVGEDGEAVYTVSVETPPGFNIQVTPEKLQFTKDGEKLTYQVIVSATASLKQDVFGALTWSNAKYKVRSPIVISSESSRTN

Key:
[1] = molecular target: T1, synthetic fluorogenic EPF1 peptide
[2] = molecular target: T2, synthetic EPF2 peptide (synEPF2), 30 AA …

Protein	synthetic peptide and protease fluorogenic cleavage assay [1]	MALDI-TOF-MS hits of cleavage fragment SKNGGVEMEMYPTGS (SEQ ID NO:131) [2]	MALDI-TOF-MS hits of cleavage fragment SKNGGVEMEMYPTGSSL (SEQ ID NO:130) [2]	MALDI-TOF-MS hits of cleavage fragment SKNGGVEMEMYPTGSSLPD (SEQ ID NO:129) [2]	MALDI-TOF-MS hits of the uncleaved 30 aa peptide [2]	synthetic peptide and protease fluorogenic cleavage assay [2]
B1	EPF1 cleavage by both SDD1 and CRSP shows low affinity					
B2	EPF1 cleavage by both SDD1 and CRSP shows low affinity	(5 hits)	(3 hits)	(14 hits)	The 30 aa, full length, uncleaved peptide was also seen (14 hits)	EPF2 cleavage sample traces indicate that EPF2 cleavage by CRSP could be specific (compared with SDD1)
